The source of these data is patent US20250027068.

Sequences and labels used below:
B1: PRT-53 (protein)
chain: MANQEIRYSEVTPYHVTSVWTKGVTPPANFTQGEDVFHAPYVANQGWYDITKTFNGKDDLLCGAATAGNMLHWWFDQNKDQIDRYLEEHPEKQKINFNGEQMFDVKEAIDTKNDQLDSKLFEYFKEKAFPYLSTKHLGVFPDLVIDMFINGYRLSLTNHGPTPVKEGSKDPRGGIFDAVFTRGDQSKLLTSRHDFKEKNLKEISDLIKKELTEGKALGLSHTYANVRINHVINLWGADFDSNGNLKAIYVTDSDSNASIGMKKYFVGVNSAGKVAISAKEIKEDNIGAQVLGLFTLSTGQDSWNQTN
B2: PRT-62 (protein)
chain: B1 chain with D83K, D114H, L143H, T181G
B3: PRT-61 (protein)
chain: B1 chain with T51N, D80E, Q81Y, D83K, D114H, L143H, I145L, I259V
B4: PRT-54 (protein)
chain: B1 chain with D114H, I175F
B5: PRT-59 (protein)
chain: B1 chain with D83K, D114H, L143H, I175F
B6: PRT-64 (protein)
chain: B1 chain with D114H, L143H
B7: PRT-4 (protein)
chain: B1 chain with D80E, D83E, E87K, N113D, D114S, L143H, G218A, S302I
B8: PRT-60 (protein)
chain: B1 chain with D83K, Q93A, D114H, L143H, T181G
B9: PRT-55 (protein)
chain: B1 chain with Q93A, D114H, I175F, T181G
B10: PRT-572 (protein)
chain: MANQEIRYSEATPSHITSVWTKGVTPPTQFIQNEDVLHAPYIANQGWYDITKTFNGKDDLLCGAATAGNMLHWWFDQNKEQIENYLKKHPEKQKINFNGEQMFDVKEAIDTKDSQTDSALFSYFKDKAFPYLSTKHLGVFPDHVIDMFINGYRLSLTNHGPTPVKEQTKDPRGGIFDAVFTRGDQSKLLTSRHDFKEKTLNEISQLIKQELTEGKALGLSHTYANVRINHVINLWGADFNAEGNLEAIYVTDSDSNASIGMKKYYVGVNSAGKVAISAKEIEGDNIGAQVLGLFTLSTGQDIWQQTNLEHHHHHH
B11: PRT-3 (protein)
chain: MRNATEAYAKEVPHQITSVWTKGVTPLTPEQFRYNNEDVIHAPYLAHQGWYDITKAFDGKDNLLCGAATAGNMLHWWFDQNKTEIEAYLSKHPEKQKIIFNNQELFDLKAAIDTKDSQTNSQLFNYFRDKAFPNLSARQLGVMPDLVLDMFINGYYLNVFKTQSTDVNRPYQDKDKRGGIFDAVFTRGDQTTLLTARHDLKNKGLNDISTIIKQELTEGRALALSHTYANVSISHVINLWGADFNAEGNLEAIYVTDSDANASIGMKKYFVGINAHGHVAISAKKIEGENIGAQVLGLFTLSSGKDIWQKLS
B12: PRT-52 (protein)
chain: MANQEIRYSEVTPYHVTSVWTKGVTPPANFTQGEDVFHAPYVANQGWYDINKTFNGGDDLLCGAATAGNMLHWWFDQNKEYIDRYLKEHPEKQKINFNGEQMFDVKEAIDTKNSQTDSKLFEYFKEKAFPYLSTKHLGVFPDLVIDMFINGYRLSLTNHGPTPVKEGSKDPRGGFFDAVFTRGDQSKLLTSRHDFKEKNYNEISDLIKKELKEGKALGLSHTYANVRINHVINLWGADFDSNGNLKAIYVTDSDSNASVGMKKYFVGVNSAGKVAISAKEIKEDNIGAQVLGLFTLSTGQDSWNQTN
B13: PRT-50 (protein)
chain: MANQEIRYSEVTPYHVTSVWTKGVTPPANFTQGEDVFHAPYVANQGWYDINKTFNGKDDLLCGAATAGNMLHWWFDQNKEQIERYLKEHPEKGKINFNGEQMFDVKEAIDTKNNQTDSKLFEYFKEKAFPYLSTKHLGVFPDRVLDMFINGYRLSLTNHGPTPVKEGSKDPRGGFFDDVFGRGDQSKLLTSRHDFKEKNLEEISDLIKKELTEGKALGLSHTYANVRINHVINLWGADFDSNGNLKAIYVTDSDSNASVGMKKYFVGVNSAGKVAISAKEIKEDNIGAQVLGLFTLSTGQDSWNQTN
B14: PRT-63 (protein)
chain: B1 chain with D80E, D83K, E87K, D114H, L143H, I145L, A178D
B15: PRT-58 (protein)
chain: B1 chain with T51N, D80E, Q81Y, E87K, D114H, I145L, I175F, A178D
B16: PRT-56 (protein)
chain: B1 chain with T51N, D80E, Q81Y, D114H, I145L, I175F, I259V
B17: PRT-51 (protein)
chain: MANQEIRYSEVTPYHVTSVWTKGVTPPANFTQGEDVFHAPYVANQGWYDINKTFNGKDDLLCGAATAGNMLHWWFDQNKDYIDRYLKKHPEKAKINFNGEQMFDVKEAIDTKNDQLDSKLFEYFKEKAFPYLSTKHLGVFPDLVLDMFINGYRLSLTNHGPTPVKEGSKDPRGGFFDDVFTRGDQSKLLTSRHDFKEKNLEEISDLIKKELTEGKALGLSHTYANVRINHVINLWGADFDENGNLKAIYVTDSDSNASIGMKRYFVGVNSAGKVAISAKEIKEDNIGAQVLGLFTLSTGQDSWNQTN
B18: PRT-57 (protein)
chain: B1 chain with T51N, Q81Y, D114H, I175F, T181G
B19: PRT-678 (protein)
chain: MQITTVWTKGVTPLTPEQFRYNNEEVIHAPYKAGQGWYDITKVFDGKDNLLCGAATAGNMLHWWFDQNKTEIEAYLSKHPEKQKIIFNNQELFDLKRAIDDKDSQTNSQLFNYFRDKAFPNLSARQLGVMPDLVLDMFINGYYLNVFKTQSTDVNRPYQDPDKRGGIFDDVFGKGDQTTLLTARHDLKNLGLEDISTIIKQELRNGRALALSHTYANVSISHVINLWGADFNAEGNLSAIYVTDSDANNSIGMKKYKVGYNAHGRVAISAKKIEGENIGAQVLGLFTLSSGKDIWQKLSLEHHHHHH

Positions count from the first letter of the chain named.

The data set concerns the target pooled human IgG.
B1: the Enzyme Activity Endpoint Assay: Fab′2 was determined as 7 ng/µL, the Enzyme Activity Endpoint Assay: Fc stood at 84 ng/µL, the Enzyme Activity Endpoint Assay: IgG was determined as 9 ng/µL and the Enzyme Activity Endpoint Assay: scIgG worked out at 61 ng/µL.

On to B2, for which the Enzyme Activity Endpoint Assay (purified): Fab′2 came to 15 ng/µL, the Enzyme Activity Endpoint Assay (purified): Fc turned out to be 94 ng/µL, the Enzyme Activity Endpoint Assay (purified): IgG was determined as 8 ng/µL and the Enzyme Activity Endpoint Assay (purified): scIgG stood at 56 ng/µL.

B3: the Enzyme Activity Endpoint Assay (purified): Fab′2 turned out to be 0 ng/µL, the Enzyme Activity Endpoint Assay (purified): Fc is 55 ng/µL, the Enzyme Activity Endpoint Assay (purified): IgG is 52 ng/µL and the Enzyme Activity Endpoint Assay (purified): scIgG is 50 ng/µL.

The protein B4 registered an Enzyme Activity Endpoint Assay: Fab′2 of 0 ng/µL, an Enzyme Activity Endpoint Assay: Fc of 24 ng/µL, an Enzyme Activity Endpoint Assay: IgG of 110 ng/µL and an Enzyme Activity Endpoint Assay: scIgG of 10 ng/µL.

The protein B5 returned an Enzyme Activity Endpoint Assay (purified): Fab′2 of 6 ng/µL, an Enzyme Activity Endpoint Assay (purified): Fc of 70 ng/µL, an Enzyme Activity Endpoint Assay (purified): IgG of 8 ng/µL and an Enzyme Activity Endpoint Assay (purified): scIgG of 56 ng/µL.

In turn, B6 showed an Enzyme Activity Endpoint Assay (purified): Fab′2 of 50 ng/µL, an Enzyme Activity Endpoint Assay (purified): Fc of 123 ng/µL, an Enzyme Activity Endpoint Assay (purified): IgG of 16 ng/µL and an Enzyme Activity Endpoint Assay (purified): scIgG of 17 ng/µL.

With B7, the Enzyme Activity Endpoint Assay: Fab′2 came out at 21 ng/µL, the Enzyme Activity Endpoint Assay: Fc is 97 ng/µL, the Enzyme Activity Endpoint Assay: IgG was found to be 23 ng/µL and the Enzyme Activity Endpoint Assay: scIgG was determined as 42 ng/µL.

Turning to B8, the Enzyme Activity Endpoint Assay (purified): Fab′2 worked out at 52 ng/µL, the Enzyme Activity Endpoint Assay (purified): Fc was determined as 133 ng/µL, the Enzyme Activity Endpoint Assay (purified): IgG is 16 ng/µL and the Enzyme Activity Endpoint Assay (purified): scIgG is 16 ng/µL.

For the protein B9, the Enzyme Activity Endpoint Assay (purified): Fab′2 is 0 ng/µL, the Enzyme Activity Endpoint Assay (purified): Fc stood at 70 ng/µL, the Enzyme Activity Endpoint Assay (purified): IgG stood at 19 ng/µL and the Enzyme Activity Endpoint Assay (purified): scIgG amounted to 57 ng/µL.

The protein B10 had an Enzyme Activity Endpoint Assay (purified): Fab′2 of 936 ng/µL, an Enzyme Activity Endpoint Assay (purified): Fc of 478 ng/µL, an Enzyme Activity Endpoint Assay (purified): IgG of 0 ng/µL and an Enzyme Activity Endpoint Assay (purified): scIgG of 0 ng/µL.

Turning to B11, the Enzyme Activity Endpoint Assay: Fab′2 was 14 ng/µL, the Enzyme Activity Endpoint Assay: Fc was 72 ng/µL, the Enzyme Activity Endpoint Assay: IgG came out at 11 ng/µL and the Enzyme Activity Endpoint Assay: scIgG was found to be 33 ng/µL.

For B12, the Enzyme Activity Endpoint Assay: Fab′2 worked out at 0 ng/µL, the Enzyme Activity Endpoint Assay: Fc was found to be 12 ng/µL, the Enzyme Activity Endpoint Assay: IgG was found to be 122 ng/µL and the Enzyme Activity Endpoint Assay: scIgG is 0 ng/µL.

The protein B13 came in with an Enzyme Activity Endpoint Assay: Fab′2 of 0 ng/µL, an Enzyme Activity Endpoint Assay: Fc of 5 ng/µL, an Enzyme Activity Endpoint Assay: IgG of 135 ng/µL and an Enzyme Activity Endpoint Assay: scIgG of 0 ng/µL.

With B14, the Enzyme Activity Endpoint Assay (purified): Fab′2 came to 44 ng/µL, the Enzyme Activity Endpoint Assay (purified): Fc was found to be 120 ng/µL, the Enzyme Activity Endpoint Assay (purified): IgG was 13 ng/µL and the Enzyme Activity Endpoint Assay (purified): scIgG came to 19 ng/µL.

In turn, B15 gave an Enzyme Activity Endpoint Assay (purified): Fab′2 of 0 ng/µL, an Enzyme Activity Endpoint Assay (purified): Fc of 9 ng/µL, an Enzyme Activity Endpoint Assay (purified): IgG of 125 ng/µL and an Enzyme Activity Endpoint Assay (purified): scIgG of 1 ng/µL.

For B16, the Enzyme Activity Endpoint Assay (purified): Fab′2 turned out to be 0 ng/µL, the Enzyme Activity Endpoint Assay (purified): Fc came to 13 ng/µL, the Enzyme Activity Endpoint Assay (purified): IgG turned out to be 125 ng/µL and the Enzyme Activity Endpoint Assay (purified): scIgG was determined as 3 ng/µL.

In turn, B17 gave an Enzyme Activity Endpoint Assay: Fab′2 of 0 ng/µL, an Enzyme Activity Endpoint Assay: Fc of 11 ng/µL, an Enzyme Activity Endpoint Assay: IgG of 118 ng/µL and an Enzyme Activity Endpoint Assay: scIgG of 0 ng/µL.

In the case of B18, the Enzyme Activity Endpoint Assay (purified): Fab′2 was 0 ng/µL, the Enzyme Activity Endpoint Assay (purified): Fc is 52 ng/µL, the Enzyme Activity Endpoint Assay (purified): IgG stood at 44 ng/µL and the Enzyme Activity Endpoint Assay (purified): scIgG stood at 55 ng/µL.

Turning to B19, the Enzyme Activity Endpoint Assay (purified): Fab′2 amounted to 56 ng/µL, the Enzyme Activity Endpoint Assay (purified): Fc stood at 0 ng/µL, the Enzyme Activity Endpoint Assay (purified): IgG was found to be 39 ng/µL and the Enzyme Activity Endpoint Assay (purified): scIgG was 0 ng/µL.
